Test results published in article PMC7910549.

Molecular target: GFP-tagged CSB (UniProt Q03468)
Assay: affinity purification with mass spectrometry; label-free quantification and iBAQ; GFP-CSB pulled down with GFP Trap beads from U2OS CSB-KO cells; untreated against 20 J/m^2 UV-C with 1 h recovery

Sequence of UniProt Q03468 (Q03468 whole entry): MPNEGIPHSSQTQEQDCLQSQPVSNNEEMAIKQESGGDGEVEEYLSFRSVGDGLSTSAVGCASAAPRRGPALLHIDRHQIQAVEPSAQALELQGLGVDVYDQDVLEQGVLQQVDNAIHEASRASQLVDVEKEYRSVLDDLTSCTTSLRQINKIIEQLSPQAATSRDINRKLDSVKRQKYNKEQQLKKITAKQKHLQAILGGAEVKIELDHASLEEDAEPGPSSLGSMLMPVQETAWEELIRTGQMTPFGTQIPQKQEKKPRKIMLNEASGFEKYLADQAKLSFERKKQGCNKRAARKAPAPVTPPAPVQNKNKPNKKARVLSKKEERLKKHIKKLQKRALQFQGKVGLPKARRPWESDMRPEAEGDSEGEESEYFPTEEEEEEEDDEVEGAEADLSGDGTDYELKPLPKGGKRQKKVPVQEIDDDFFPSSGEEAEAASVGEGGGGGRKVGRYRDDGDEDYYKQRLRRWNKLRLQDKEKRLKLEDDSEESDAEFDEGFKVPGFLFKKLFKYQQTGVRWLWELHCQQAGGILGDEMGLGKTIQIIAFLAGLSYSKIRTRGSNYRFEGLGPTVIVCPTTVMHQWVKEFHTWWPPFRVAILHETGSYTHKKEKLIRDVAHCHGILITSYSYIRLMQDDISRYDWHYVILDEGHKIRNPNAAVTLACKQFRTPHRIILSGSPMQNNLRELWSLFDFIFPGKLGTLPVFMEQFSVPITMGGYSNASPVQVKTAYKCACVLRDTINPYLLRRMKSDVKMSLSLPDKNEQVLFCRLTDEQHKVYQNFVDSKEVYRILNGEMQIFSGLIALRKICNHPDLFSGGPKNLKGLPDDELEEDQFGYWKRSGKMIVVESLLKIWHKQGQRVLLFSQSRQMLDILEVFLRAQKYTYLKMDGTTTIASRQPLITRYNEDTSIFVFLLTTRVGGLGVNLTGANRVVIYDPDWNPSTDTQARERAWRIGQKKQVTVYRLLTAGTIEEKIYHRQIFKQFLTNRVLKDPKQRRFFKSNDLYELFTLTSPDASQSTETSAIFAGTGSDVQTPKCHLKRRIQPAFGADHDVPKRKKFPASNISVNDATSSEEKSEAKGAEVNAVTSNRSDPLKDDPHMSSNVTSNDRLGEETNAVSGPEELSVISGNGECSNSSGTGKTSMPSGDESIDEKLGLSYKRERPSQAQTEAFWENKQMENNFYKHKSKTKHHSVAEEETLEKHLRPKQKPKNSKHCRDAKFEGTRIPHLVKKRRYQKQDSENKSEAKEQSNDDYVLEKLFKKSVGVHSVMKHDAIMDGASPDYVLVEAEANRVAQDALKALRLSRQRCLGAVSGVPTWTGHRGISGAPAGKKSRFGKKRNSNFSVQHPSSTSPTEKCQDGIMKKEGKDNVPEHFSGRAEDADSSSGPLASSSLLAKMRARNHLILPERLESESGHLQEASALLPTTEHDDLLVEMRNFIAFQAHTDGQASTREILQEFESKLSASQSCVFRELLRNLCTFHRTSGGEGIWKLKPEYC

For “RNA polymerase II (RNAPII), endogenous (from UniProt P24928 1-1970) (complex)”, which percent of the isolated CSB molecules associated (iBAQ) is on record?
Its percent of the isolated CSB molecules associated (iBAQ) is greater than 60%.
